What follows are sequences tested on Escherichia coli TOP10 (assay: shrunken log2 fold change of peptide-encoding DNA abundance (4.5 h post-induction vs induction); higher = less antimicrobial activity (less host growth inhibition)). Conditions: time post-induction: 4.5 h; library: site-saturation at positions 5, 18, 19, 20.
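Further: peptides expressed intracellularly from a pBAD plasmid library in pooled LB shake-flask culture, induced with 0.3% L-arabinose, DNA abundance read by NGS, three biological replicates, DESeq2 with apeglm shrinkage.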

Row | Sequence | shrunken log2 fold change
1 | RRIRVRPPRLPRPRPRPNLCPRP | -0.292
2 | RRIRLRPPRLPRPRPRPDATPRP | 0.398
3 | RRIRGRPPRLPRPRPRPVDDPRP | 0.882
4 | RRIRGRPPRLPRPRPRPAEYPRP | -0.187
5 | RRIRERPPRLPRPRPRPLNEPRP | -0.13
6 | RRIRCRPPRLPRPRPRPIEIPRP | -0.223
7 | RRIRIRPPRLPRPRPRPYCLPRP | -0.259
8 | RRIRARPPRLPRPRPRPQHMPRP | -0.414
9 | RRIRPRPPRLPRPRPRPTREPRP | 0.177
10 | RRIRLRPPRLPRPRPRPHNVPRP | 0.0245
11 | RRIRKRPPRLPRPRPRPAGQPRP | 0.0284
12 | RRIRPRPPRLPRPRPRPAYSPRP | -0.23
13 | RRIRGRPPRLPRPRPRPENHPRP | 0.455
14 | RRIRERPPRLPRPRPRPYAEPRP | -0.447
15 | RRIRPRPPRLPRPRPRPITRPRP | 0.31
16 | RRIRMRPPRLPRPRPRPRQGPRP | -0.0232
17 | RRIRRRPPRLPRPRPRPHAHPRP | -0.00194
18 | RRIRGRPPRLPRPRPRPEGFPRP | 1.56
19 | RRIRPRPPRLPRPRPRPYRDPRP | 0.0239
20 | RRIRERPPRLPRPRPRPNYYPRP | -0.893
21 | RRIRYRPPRLPRPRPRPDEMPRP | 0.0412
22 | RRIRYRPPRLPRPRPRPHDSPRP | -0.08
23 | RRIRARPPRLPRPRPRPAQKPRP | 0.0505
24 | RRIRHRPPRLPRPRPRPDLYPRP | -0.243
25 | RRIRSRPPRLPRPRPRPWCYPRP | -0.263

Row | Sequence | shrunken log2 fold change
26 | RRIRLRPPRLPRPRPRPWSGPRP | -0.000803
27 | RRIRPRPPRLPRPRPRPHQDPRP | -0.362
28 | RRIRERPPRLPRPRPRPYVAPRP | -0.72
29 | RRIRGRPPRLPRPRPRPERLPRP | 0.586
30 | RRIRTRPPRLPRPRPRPMKMPRP | 0.0821
31 | RRIRRRPPRLPRPRPRPKDDPRP | 0.302
32 | RRIRHRPPRLPRPRPRPPRSPRP | 0.704
33 | RRIRKRPPRLPRPRPRPMLYPRP | -0.26
34 | RRIRKRPPRLPRPRPRPERDPRP | 0.621
35 | RRIRVRPPRLPRPRPRPYKDPRP | -0.933
36 | RRIRCRPPRLPRPRPRPMHDPRP | 0.0244
37 | RRIRIRPPRLPRPRPRPWEFPRP | -0.000856
38 | RRIRYRPPRLPRPRPRPVWRPRP | 0.119
39 | RRIRPRPPRLPRPRPRPEHYPRP | -0.106
40 | RRIRLRPPRLPRPRPRPCALPRP | -0.0607
41 | RRIRARPPRLPRPRPRPSLGPRP | 0.188
42 | RRIRTRPPRLPRPRPRPSKGPRP | -0.605
43 | RRIRDRPPRLPRPRPRPSVKPRP | -0.256
44 | RRIRLRPPRLPRPRPRPDHKPRP | -0.257
45 | RRIRPRPPRLPRPRPRPPLDPRP | 0.517
46 | RRIRERPPRLPRPRPRPRYGPRP | 1.59
47 | RRIRTRPPRLPRPRPRPKYTPRP | -0.508
48 | RRIRARPPRLPRPRPRPPFYPRP | 0.14
49 | RRIRARPPRLPRPRPRPWCPPRP | -0.169
50 | RRIRGRPPRLPRPRPRPWHDPRP | -0.178

Row | Sequence | shrunken log2 fold change
51 | RRIRWRPPRLPRPRPRPDCMPRP | 0.259
52 | RRIRPRPPRLPRPRPRPERIPRP | 0.152
53 | RRIRKRPPRLPRPRPRPGIYPRP | 0.107
54 | RRIRCRPPRLPRPRPRPINFPRP | -0.235
55 | RRIRARPPRLPRPRPRPVQTPRP | 0.264
56 | RRIRCRPPRLPRPRPRPTDRPRP | 0.15
57 | RRIRERPPRLPRPRPRPKALPRP | -0.113
58 | RRIRSRPPRLPRPRPRPFYDPRP | -0.254
59 | RRIRKRPPRLPRPRPRPSLHPRP | 0.0624
60 | RRIRLRPPRLPRPRPRPVQNPRP | 0.0224
61 | RRIRIRPPRLPRPRPRPLTLPRP | -0.22
62 | RRIRERPPRLPRPRPRPQEKPRP | -0.015
63 | RRIRVRPPRLPRPRPRPAQPPRP | 0.228
64 | RRIRCRPPRLPRPRPRPDTTPRP | 0.00602
65 | RRIRLRPPRLPRPRPRPNECPRP | -0.0751
66 | RRIRFRPPRLPRPRPRPETWPRP | 0.0692
67 | RRIRSRPPRLPRPRPRPHREPRP | -0.14
68 | RRIRYRPPRLPRPRPRPEIGPRP | 0.066
69 | RRIRDRPPRLPRPRPRPAVNPRP | 0.092
70 | RRIRRRPPRLPRPRPRPETAPRP | 0.658
71 | RRIRKRPPRLPRPRPRPFGCPRP | 0.0495
72 | RRIRPRPPRLPRPRPRPMFTPRP | -0.178
73 | RRIRFRPPRLPRPRPRPAYPPRP | -0.412
74 | RRIRTRPPRLPRPRPRPWCSPRP | -0.799
75 | RRIRTRPPRLPRPRPRPFAGPRP | -0.0338

From the supplement of paper PMC9112550, “Optimization of the antimicrobial peptide Bac7 by deep mutational scanning” (BMC Biology, 2022)
